Experimental data as given in patent US20230167192A1 (SUZHOU ZELGEN BIOPHARMACEUTICALS, published 2023).

Experiments:
[1] = biological target: monkey CD47 on monkey erythrocytes (monkey); assay: flow cytometry on monkey erythrocytes
[2] = biological target: monkey CD47 on monkey erythrocytes (monkey, UniProt A0A2K5X4H8 19-305); assay: flow cytometry on monkey erythrocytes
[3] = biological target: T1, human CD47 protein (human, UniProt Q08722 19-139, limits assumed); assay: ELISA, plate coated with human CD47 protein
Protocol: The next day, the plate was washed 3 times with 300 μL of PBST (Tween 20: 0.5‰), then blocked with 5% BSA/PBS at 100 μL/well for 2 h, and shaken at room temperature. The plate was then washed with 300 μL of PBST 3 times. The antibody samples prepared with PBS were serially diluted, added to a 96-well plate at 100 μL/well and shaken for 1 h at room temperature. The plate was then washed with 300 μL of PBST 3 times. A secondary goat anti-mouse IgG HRP or goat anti-human IgG HRP solution was prepared, added to a 96-well plate at 100 μL/well and shaken for 1 h at room temperature. The plate was then washed with 300 μL of PBST 4 times. TMB was added at 100 μL/well for 20 min of chromogenesis. The chromogenesis was terminated by adding 0.6 N H₂SO₄ at 100 μL/well and the OD_{450 nm} was detected.

[4] = biological target: T2, human CD47 on cells (human, UniProt Q08722 19-323); assay: flow cytometry, inhibition of SIRPα-mFc binding to CHO-CD47 cells
T2 construct: whole, on cells; also called CHO-CD47 cells; MKN-45

[5] = biological target: T2, human CD47 on cells; assay: flow cytometry on human erythrocytes; human erythrocytes, flow cytometry
Protocol: Erythrocytes were first isolated from the peripheral blood of volunteers and suspended in physiological saline to obtain an erythrocyte suspension with a concentration of 2%. Serially diluted antibody solutions were prepared with PBS to formulate 2× working solutions at final concentrations. 50 μL of the antibody working solution was added into 50 μL of erythrocyte suspension, and the mixture was incubated at 4° C. in the dark for 60 min. After washing twice with PBS, a corresponding fluorescence-labeled secondary antibody was added, and the mixture was incubated for 30 min at 4° C. in the dark, washed twice with PBS, and suspended with 400 μL of FACS buffer. The binding of the antibodies to the erythrocytes was detected by a flow cytometer. For erythrocyte agglutination detection, 50 μL of the antibody working solution was also added into 50 μL of erythrocyte suspension. The mixture was placed on a 96-well round bottom plate, let stand at room temperature for 2 h, observed and photographed.

[6] = biological target: T2, human CD47 on cells; assay: flow cytometry on MKN-45 cells
Protocol: (§1) First, the inventors verified the expression of CD47 in the above 3 cell lines using flow cytometry. Serially diluted solutions of anti-human CD47 detection antibody (eBioscience, 17-0479-42) and APC isotype (eBioscience, 17-4714-41), anti-huIgG 633 (life technologies, A21091) were prepared with PBS to formulate 2× working solutions at final concentrations. The three tumor cells were collected, washed with PBS once, counted, and diluted to 4×10⁶/mL cell suspension. For each cell line, 50 μL of the antibody working solution was added into 50 μL of cell suspension, and the mixture was incubated at 4° C. in the dark for 30 min. After washing twice with PBS, a corresponding fluorescence-labeled secondary antibody (anti-huIgG 633) was added, and the mixture was incubated for 30 min at 4° C. in the dark, washed twice with PBS, and suspended with 400 μL of FACS buffer. The binding of the antibodies to the cells was detected by a flow cytometer.
(§2) The method is the same as above.

[7] = biological target: T2, human CD47 on cells; assay: flow cytometry on A2780 cells
Protocol: as §1, §2

[8] = biological target: T2, human CD47 on cells; assay: flow cytometry on SW620 cells
Protocol: as §1, §2

[9] = biological target: T1, human CD47 protein; assay: SPR (Biacore T200), antibody captured on protein A chip, CD47 protein in solution
Protocol: The affinity of antigen-antibody binding was measured by SPR (surface plasma resonance). […] During the dissociation phase, elution was continued for 360 s with HBS-EP buffer. The binding of CD47 to the antibody on the sensor chip was quantitatively determined using Biacore T200 (GE Healthcare).

Chain of monkey CD47 on monkey erythrocytes (monkey) (A0A2K5 entry or part of it limits assumed): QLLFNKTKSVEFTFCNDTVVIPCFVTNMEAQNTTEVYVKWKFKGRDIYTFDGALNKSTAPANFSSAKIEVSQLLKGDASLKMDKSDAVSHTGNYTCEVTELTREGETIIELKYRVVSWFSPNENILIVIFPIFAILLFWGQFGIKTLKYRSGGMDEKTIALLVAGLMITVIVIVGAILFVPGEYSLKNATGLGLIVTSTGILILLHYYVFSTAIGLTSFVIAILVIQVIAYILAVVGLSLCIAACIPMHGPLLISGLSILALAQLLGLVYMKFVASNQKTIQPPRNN
Chain of monkey CD47 on monkey erythrocytes (A0A2K5X4H8 entry or part of it limits assumed): as the sequence (A0A2K5 entry or part of it limits assumed) above

EC50 [1] [µg/mL] | plateau [1] | EC50 [2] [µg/mL] | EC50 [3] [µg/mL] | IC50 [4] [µg/mL] | EC50 [5] [µg/mL] | EC50 [6] [µg/mL] | EC50 [7] [µg/mL] | EC50 [8] [µg/mL] | Kd [9] [nM] | koff [9] [s⁻¹] | kon [9] [M⁻¹ s⁻¹] | Molecule
0.586 | 392 | – | – | – | – | – | – | – | – | – | – | positive control antibody Hu5F9
– | – | 0.907 | 0.25 | 3.38 | 1.21 | 0.381 | 0.142 | 0.216 | – | – | – | human-mouse chimeric antibody UM03-L4 (antibody, human IgG4 S228P, kappa, V domains shown, expressed in HEK293 cells) VH: EVKLVESGGDLVQPGGSRKLSCAASGFTFSDYGMAWIRQAPGKGPEWIAFITNLASSIYYADTVTGRFTISRENAKNTLYLEMSSLRSEDTAMYYCARAGDYRSFPYWGQGTPVTVSA VL: EILLTQSPAIIAASPGEKVTITCSASSSVNYVNWYQQKPGSSPKIWIYGISNLASGVPARFSGSGSGTSFSFTINSMEAEDVATYYCQQRSTFPPYTFGGGTKLEIKR
– | – | – | 0.169 | 2.4 | 0.93 | 0.354 | 0.119 | 0.126 | 0.19 | 0.000193 | 1.02e+06 | humanized antibody UM03-C4 (antibody, human IgG4 S228P, kappa, V domains shown, expressed in HEK293 cells) VH: QVQLVESGGGVVQPGGSLRLSCAASGFTFSDYGMAWIRQAPGKGPEWIAFITNLASSIYYADTVTGRFTISRDNSKNTLYLQMNSLRAEDTAVYYCARAGDYRSFPYWGQGTLVTVSA VL: EIVLTQSPATLSLSPGERATLSCSASSSVNYVNWYQQKPGQAPRILIYGISNLASGVPARFSGSGSGTDFTLTISSLEPEDFAVYYCQQRSTFPPYTFGQGTKLEIKR
